Holding throughout (assay): pull-down
Assay [1] has as its target His-ImuB-L378A (M. smegmatis) (M. smegmatis).
For assay [2], the target named is His-ImuB-L378A+V383A (M. smegmatis) (M. smegmatis).
Assay [3] concerns the target His-ImuB-V383A (M. smegmatis) (M. smegmatis).

The values below come from publication doi:10.1101/2023.03.28.534377.

Take “Strep-VFP-tagged ImuA’ (M. smegmatis) (natural protein)”: the fold less pulled down than by His-ImuB worked out at 1.5 fold in assay [1], 3 fold in assay [2] and 1.5 fold in assay [3].
